T1: His-IARS1, full-length human IARS1 (residues 1−1262) (human, UniProt P41252 1-1262)
T1 construct: pFASTbacHTb vector; also called purified IARS1; full-length IARS1; source: Sf9, purified (Ni2+ column, IEX, SEC); not shown: His6, N-terminal, kept
T1 sequence (looked up): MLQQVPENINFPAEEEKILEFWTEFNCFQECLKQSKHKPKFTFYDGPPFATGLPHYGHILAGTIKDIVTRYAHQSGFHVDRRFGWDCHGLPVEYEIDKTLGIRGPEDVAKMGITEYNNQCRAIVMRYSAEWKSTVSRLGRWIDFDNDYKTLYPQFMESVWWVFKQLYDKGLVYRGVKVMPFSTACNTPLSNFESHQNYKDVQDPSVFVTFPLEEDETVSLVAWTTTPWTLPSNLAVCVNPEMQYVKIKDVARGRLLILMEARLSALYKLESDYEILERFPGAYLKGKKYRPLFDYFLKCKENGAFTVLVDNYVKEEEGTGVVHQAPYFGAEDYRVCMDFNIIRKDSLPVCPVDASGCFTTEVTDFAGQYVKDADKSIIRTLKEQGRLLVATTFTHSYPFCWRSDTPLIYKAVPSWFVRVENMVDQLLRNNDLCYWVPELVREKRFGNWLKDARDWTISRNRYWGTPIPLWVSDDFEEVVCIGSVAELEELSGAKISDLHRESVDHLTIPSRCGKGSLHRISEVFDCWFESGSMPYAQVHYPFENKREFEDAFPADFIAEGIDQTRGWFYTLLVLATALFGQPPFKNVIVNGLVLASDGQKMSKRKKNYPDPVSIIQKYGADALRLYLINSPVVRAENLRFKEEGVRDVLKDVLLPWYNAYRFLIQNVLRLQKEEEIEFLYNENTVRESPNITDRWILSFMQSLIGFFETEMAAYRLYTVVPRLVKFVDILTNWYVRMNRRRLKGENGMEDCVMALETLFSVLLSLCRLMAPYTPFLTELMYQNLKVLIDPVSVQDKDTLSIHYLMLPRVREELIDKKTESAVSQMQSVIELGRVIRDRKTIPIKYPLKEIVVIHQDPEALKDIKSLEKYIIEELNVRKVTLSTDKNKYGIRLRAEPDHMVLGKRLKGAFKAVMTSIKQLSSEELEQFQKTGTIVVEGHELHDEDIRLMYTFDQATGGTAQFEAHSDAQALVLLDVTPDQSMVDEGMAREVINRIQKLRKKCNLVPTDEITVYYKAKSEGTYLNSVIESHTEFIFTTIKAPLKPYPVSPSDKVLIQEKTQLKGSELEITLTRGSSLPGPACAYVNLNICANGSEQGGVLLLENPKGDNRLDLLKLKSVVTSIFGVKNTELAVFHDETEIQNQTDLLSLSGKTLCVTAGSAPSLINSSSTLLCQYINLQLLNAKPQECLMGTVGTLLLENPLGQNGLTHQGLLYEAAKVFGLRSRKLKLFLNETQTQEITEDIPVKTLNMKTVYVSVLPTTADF

B1: GST-EARS1 with three WHEP motifs (human EPRS1 residues 1–1015) (domain or fragment, UniProt P07814 1-1015, looked up)
chain: MATLSLTVNSGDPPLGALLAVEHVKDDVSISVEEGKENILHVSENVIFTDVNSILRYLARVATTAGLYGSNLMEHTEIDHWLEFSATKLSSCDSFTSTINELNHCLSLRTYLVGNSLSLADLCVWATLKGNAAWQEQLKQKKAPVHVKRWFGFLEAQQAFQSVGTKWDVSTTKARVAPEKKQDVGKFVELPGAEMGKVTVRFPPEASGYLHIGHAKAALLNQHYQVNFKGKLIMRFDDTNPEKEKEDFEKVILEDVAMLHIKPDQFTYTSDHFETIMKYAEKLIQEGKAYVDDTPAEQMKAEREQRIDSKHRKNPIEKNLQMWEEMKKGSQFGQSCCLRAKIDMSSNNGCMRDPTLYRCKIQPHPRTGNKYNVYPTYDFACPIVDSIEGVTHALRTTEYHDRDEQFYWIIEALGIRKPYIWEYSRLNLNNTVLSKRKLTWFVNEGLVDGWDDPRFPTVRGVLRRGMTVEGLKQFIAAQGSSRSVVNMEWDKIWAFNKKVIDPVAPRYVALLKKEVIPVNVPEAQEEMKEVAKHPKNPEVGLKPVWYSPKVFIEGADAETFSEGEMVTFINWGNLNITKIHKNADGKIISLDAKLNLENKDYKKTTKVTWLAETTHALPIPVICVTYEHLITKPVLGKDEDFKQYVNKNSKHEELMLGDPCLKDLKKGDIIQLQRRGFFICDQPYEPVSPYSCKEAPCVLIYIPDGHTKEMPTSGSKEKTKVEATKNETSAPFKERPTPSLNNNCTTSEDSLVLYNRVAVQGDVVRELKAKKAPKEDVDAAVKQLLSLKAEYKEKTGQEYKPGNPPAEIGQNISSNSSASILESKSLYDEVAAQGEVVRKLKAEKSPKAKINEAVECLLSLKAQYKEKTGKEYIPGQPPLSQSSDSSPTRNSEPAGLETPEAKVLFDKVASQGEVVRKLKTEKAPKDQVDIAVQELLQLKAQYKSLIGVEYKPVSATGAEDKDKKKKEKENKSEKQNKPQKQNDGQRKDPSKNQGGGLSSSGAGEGQGPKKQTRLG
notes: pGEX4T3 vector; source: E. coli Rosetta (DE3), purified (GST column, gel filtration)
B2: GST-EARS1 without the WHEP motifs (human EPRS1 residues 1−706) (domain or fragment, UniProt P07814 1-706, looked up)
chain: MATLSLTVNSGDPPLGALLAVEHVKDDVSISVEEGKENILHVSENVIFTDVNSILRYLARVATTAGLYGSNLMEHTEIDHWLEFSATKLSSCDSFTSTINELNHCLSLRTYLVGNSLSLADLCVWATLKGNAAWQEQLKQKKAPVHVKRWFGFLEAQQAFQSVGTKWDVSTTKARVAPEKKQDVGKFVELPGAEMGKVTVRFPPEASGYLHIGHAKAALLNQHYQVNFKGKLIMRFDDTNPEKEKEDFEKVILEDVAMLHIKPDQFTYTSDHFETIMKYAEKLIQEGKAYVDDTPAEQMKAEREQRIDSKHRKNPIEKNLQMWEEMKKGSQFGQSCCLRAKIDMSSNNGCMRDPTLYRCKIQPHPRTGNKYNVYPTYDFACPIVDSIEGVTHALRTTEYHDRDEQFYWIIEALGIRKPYIWEYSRLNLNNTVLSKRKLTWFVNEGLVDGWDDPRFPTVRGVLRRGMTVEGLKQFIAAQGSSRSVVNMEWDKIWAFNKKVIDPVAPRYVALLKKEVIPVNVPEAQEEMKEVAKHPKNPEVGLKPVWYSPKVFIEGADAETFSEGEMVTFINWGNLNITKIHKNADGKIISLDAKLNLENKDYKKTTKVTWLAETTHALPIPVICVTYEHLITKPVLGKDEDFKQYVNKNSKHEELMLGDPCLKDLKKGDIIQLQRRGFFICDQPYEPVSPYSCKEAPCVLIYIPDGH
notes: human EPRS1, EARS1 part without the three WHEP motifs, residues 1-706; pGEX4T3 vector; source: E. coli Rosetta (DE3), purified (GST column, gel filtration)
B3: heterodimeric RING (BRCA1 residues 1–304)-RING (BARD1 residues 26–142) domains of the BRCA1-BARD1 complex (complex)
chain 1: MDLSALRVEEVQNVINAMQKILECPICLELIKEPVSTKCDHIFCKFCMLKLLNQKKGPSQCPLCKNDITKRSLQESTRFSQLVEELLKIICAFQLDTGLEYANSYNFAKKENNSPEHLKDEVSIIQSMGYRNRAKRLLQSEPENPSLQETSLSVQLSNLGTVRTLRTKQRIQPQKTSVYIELGSDSSEDTVNKATYCSVGDQELLQITPQGTRDEISLDSAKKAACEFSETDVTNTEHHQPSNNDLNTTEKRAAERHPEKYQGSSVSNLHVEPCGTNTHASSLQHENSSLLLTKDRMNVEKAEF
chain 2: MEPDGRGAWAHSRAALDRLEKLLRCSRCTNILREPVCLGGCEHIFCSNCVSDCIGTGCPVCYTPAWIQDLKINRQLDSMIQLCSKLRNLLHDNELSDLKEDKPRKSLFNDAGNKKNS
notes: also called RING-RING domains; source: expressed and purified as the BRCA1-BARD1 complex
B4: BRCT domain (residues 1645–1863) of BRCA1 (domain or fragment, UniProt P38398 1645-1863, looked up)
chain: RVNKRMSMVVSGLTPEEFMLVYKFARKHHITLTNLITEETTHVVMKTDAEFVCERTLKYFLGIAGGKWVVSYFWVTQSIKERKMLNEHDFEVRGDVVNGRNHQGPKRARESQDRKIFRGLEICCYGPFTNMPTDQLEWMVQLCGASVVKELSSFTLGTGVHPIVVVQPDAWTEDNGFHAIGQMCEAPVVTREWVLDSVALYQCQELDTYLIPQIPHSHY
notes: BRCA1 BRCT domain, residues 1645-1863; also called BRCA1 BRCT

Legend:
[1] = biological target: T1, His-IARS1, full-length human IARS1 …; assay: pull-down; human His-IARS1 or IARS1ΔUBX2 mixed with human GST-EARS1 at 1:1.5, 30 min at 4 °C, Ni-sepharose beads 2 hr at 4 °C, eluted with 250 mM imidazole in His A buffer (20 mM Tris-HCl pH 7.4, 300 mM NaCl, 7 mM 2-mercaptoethanol, 5% glycerol), SDS-PAGE and Coomassie; settings: both partners purified
[2] = biological target: T1, His-IARS1, full-length human IARS1 …; assay: pull-down; in vitro pull-down of IARS1 with fragments of the BRCA1-BARD1 complex; settings: both partners purified

Binder | binding result [1] | binding result [2]
B1 | binds | –
B2 | binds | –
B3 | – | binds
B4 | – | binds

From paper PMC9643514, “Regulation of BRCA1 stability through the tandem UBX domains of isoleucyl-tRNA synthetase 1” (Nature Communications, 2022)
